Source: patent publication US5795761A, “Mutants of 2,5-diketo-D-gluconic acid (2,5-DKG) reductase A” (Rutgers, The State University of New Jersey, priority 1996, dated 1998)
Numbering of substitutions follows the chain as printed. Names and notes keep the numbering of the source.

B1: Corynebacterium sp. 2,5-DKG reductase A, wild type (Corynebacterium sp. ATCC 31090) (protein)
chain: MTVPSIVLNDGNSIPQLGYGVFKVPPADTQRAVEEALEVGYRHIDTAAIYGNEEGVGAAIAASGIARDDLFITTKLWNDRHDGDEPAAAIAESLAKLALDQVDLYLVHWPTPAADNYVHAWEKMIELRAAGLTRSIGVSNHLVPHLERIVAATGVVPAVNQIELHPAYQQREITDWAAAHDVKIESWGPLGQGKYDLFGAEPVTAAAAAHGKTPAQAVLRWHLQKGFVVFPKSVRRERLEENLDVFDFDLTDTEIAAIDAMDPGDGSGRVSAHPDEVD
notes: made in house; host or cells: Acetobacter cerinus (ATCC No. 39140)
B2: Corynebacterium sp. 2,5-DKG reductase A mutant Q192R (Corynebacterium sp. ATCC 31090; Q192R) (protein)
chain: B1 chain with Q192R
notes: made in house; host or cells: Acetobacter cerinus
B3: Corynebacterium sp. 2,5-DKG reductase A mutant A272G (Corynebacterium sp. ATCC 31090; A272G) (protein)
chain: B1 chain with A272G
notes: made in house
B4: Corynebacterium sp. 2,5-DKG reductase A mutant F22Y/A272G (Corynebacterium sp. ATCC 31090; A272G/F22Y) (protein)
chain: B1 chain with F22Y, A272G
notes: made in house

Legend:
Format in all cases: biochemical, Corynebacterium sp. (ATCC 31090)
[1] = substrate: O=C(O)C(=O)[C@@H](O)[C@H](O)C(=O)CO; experiment: Substrate kinetics of 2,5-DKG reduction (NADPH oxidation followed at 340 nm); settings: other: 50 mM tris pH 7.0, 0.2 mM NADPH, 2 to 14 mM substrate, 25° C.
Description: (§1) The preparations of wild-type and mutant Q192R 2,5-DKG reductase A enzymes were characterized kinetically as to their ability to reduce the substrate 2,5-DKG to 2-KLG. Assays were done in 1 ml total volume of 50 mM tris, pH 7.0, containing 0.2 mM NADPH, a constant amount of enzyme (15-20 μg) and amounts of substrate varying from 2 to 14 mM. The assays were done at 25° C., and the rate of substrate reduction was measured spectrophotometrically by measuring the loss of absorbance at 340 nm wavelength (which is indicative of the oxidation of the cofactor NADPH to NADP+).
The data were analyzed according to the well-known Michaelis equation to determine the kinetic parameters Vmax and Km using the Enzfit software package (Biosoft, Cambridge, UK) on a Epson desktop computer.

[2] = substrate: O=C(O)C(=O)[C@@H](O)[C@H](O)C(=O)CO; experiment: Substrate kinetics of 2,5-DKG reduction, 200 μM NADPH, substrate 0 to 30 mM; settings: other: 200 μM NADPH, 0 to 30 mM 2,5-DKG; pH 7.0; 25.0 °C
Description: as §1
A crude kinetic characterization of 2,5-DKG Reductase A mutants D278A, V277A, E276A, D275A, P274A, H273A, A272G, S271A, V270A, R269A, S267A, and D265A was carried out. […] 2-5-DKG Reductase A mutant A272G was characterized in essentially the same manner as in Example 5 except that in order to determine kinetic parameters for the NADPH-dependent reduction of 2,5-DKG by 2,5-DKG reductases, a series of reactions were done with constant saturating concentration of NADPH (200 μM) and varying concentrations of substrate from 0 to 30 mM.

[3] = substrate: NC(=O)C1=CN([C@@H]2O[C@H](COP(=O)(O)OP(=O)(O)OC[C@H]3O[C@@H](n4cnc5c(N)ncnc54)[C@H](OP(=O)(O)O)[C@@H]3O)[C@@H](O)[C@H]2O)C=CC1; experiment: Cofactor kinetics, constant 2,5-DKG and varying NADPH; settings: other: 50 mM bis-Tris pH 6.8, 10 mM 2,5-DKG, 2.5 to 200 μM NADPH
Description: The cofactor affinity of DKG reductase A F22Y, Q192R, A272G, and F22Y/A272G was determined by analysis of a series of reactions with constant substrate concentration and varying concentrations of NADPH.
Each series of reactions consisted of 50 mM bis-Tris pH 6.8, 10 mM 2,5-DKG, from 2.5 to 200 μM NADPH, and enzyme in a total volume of 1.0 ml.
Initial rate data for the reactions were fitted to the Michaelis-Menten equation by non-linear regression analysis as previously described to determine KM,NADPH.

Row | Protein | Km [1] | Vmax [1] | kcat/Km [1] | Km [2] | kcat [2] | Km [3]
1 | B1 | 28 mM | 7.8 μmoles per minute per milligram of protein | 140 M⁻¹ s⁻¹ | – | – | –
2 | B2 | 21 mM | 14.0 μmoles per minute per milligram of protein | 335 M⁻¹ s⁻¹ | – | – | –
3 | B3 | – | – | – | 42.61 ± 12.13 mM | 21.44 ± 4.10 s⁻¹ | 0.00492 mM
4 | B4 | – | – | – | – | – | 0.00819 mM
